18 sequences from the DeepSol protein solubility set can be followed below.

The nature of this data set: soluble on expression in E. coli; label from the status in PepcDB or PDB records.
As for “MRGLMLRSFSAGYSTQPVIADLNVPLLPRGKITILLGPNGCGKSTLLRSLAGLNNADGEALLDGEDLMSLSFAERAQKVVFLPQSLPQGVHLHVLESIIVVLRASGGRDNAQGRAQILAILEQLGITHLALQYLDQLSGGQRQLVGLAQSLIRRPELLLLDEPLSALDLNYQFHVMDLVRRDTQAQNRVTIVVAHDINIALRHGDHVLMLKDGRLVASGAPETVITAERLAEVYRVRGRVERCSQGKLQVVLDGVIAV”, the “soluble on expression in E. coli” value is given as “not soluble”.

Consider “MRGSHHHHHHGLVPRGSMIRTMLQGKLHRVKVTHADLHYEAGSCAIDQDFLDAAGILENEAIDIWNVTNGKRFSTYAIAAERGSRIISVNGAAAHCASVGDIVIIASFVTMPDEEARTWRPNVAYFEGDNEMKRTAKAIPVQVA”, for which the “soluble on expression in E. coli” value was “soluble”.

As for “MRGSHHHHHHGSACVSKRRVVVTGLGMLSPVGNTVESTWKALLAGQSGISLIDHFDTSAYATKFAGLVKDFNCEDIISRKEQRKMDAFIQYGIVAGVQAMQDSGLEITEENATRIGAAIGSGIGGLGLIEENHTSLMNGGPRKISPFFVPSTIVNMVAGHLTIMYGLRGPSISIATACTSGVHNIGHAARIIAYGDADVMVAGGAEKASTPLGVGGFGAARALSTRNDNPQAASRPWDKERDGFVLGDGAGMLVLEEYEHAKKRGAKIYAELVGFGMSSDAYHMTSPPENGAGAALAMANALRDAGIEASQIGYVNAHGTSTPAGDKAEAQAVKTIFGEAASRVLVSSTKSMTGHLLGAAGAVESIYSILALRDQAVPPTINLDNPDEGCDLDFVPHEARQVSGMEYTLCNSFGFGGTNGSLIFKKI”, the “soluble on expression in E. coli” value was “soluble”.

On to “MRGSHHHHHHGSADAYPSKAIRVIVPFAPGGSTDIIARLVTQRMSQELGQPMVVENKGGAGGAIGASEAARAEPDGYTLSIATVSTMAVNPACRPKDLPYDPIKDFQPVTNFANTANVVAVNPKFPAKDFKGFLEELKKNPGKYSYGSSGTCGVLHLMGESFKMATGTDIVHVPYKGSGPAVADAVGGQIELIFDNLPSSMPQIQAGKLRAMAIAWPTRIDAIKDVPTFADAGFPVLNQPVWYGLLAPKGTPMDVVNKLRDAAVVALKDPKVIKALDDQGSAPSGNTPEEFAKEIKEQYDWAQDVVKKQNIKLD”, for which the “soluble on expression in E. coli” value is reported as “soluble”.

In the case of “MRGSHHHHHHGSESETLTAKATITTTTLPSHDETKTESTEFEKNQKRYQDLISTFPHEKGWRPKEPLIEYGGYWWLPSLLEGCIHAQEFFQARPSDFLVCSYPKTGTTWLKALTFAIANRSRFDDSSNPLLKRNPHEFVPYIEIDFPFFPEVDVLKDKGNTLFSTHIPYELLPDSVVKSGCKMVYIWREPKDTFISMWTFLHKERTELGPVSNLEESFDMFCRGLSGYGPYLNHILAYWKAYQENPDRILFLKYETMRADPLPYVKSLAEFMGHGFTAEEEEKGVVEKVVNLCSFETLKNLEANKGEKDREDRPGVYANSAYFRKGKVGDWSNYLTPEMAARIDGLMEEKFKGTGLLEHGKKLN”, the “soluble on expression in E. coli” value is on record as “soluble”.

Consider “MRGSHHHHHHSNFAIILAAGKGTRMKSDLPKVLHKVAGISMLEHVFRSVGAIQPEKTVTVVGHKAELVEEVLAGQTEFVTQSEQLGTGHAVMMTEPILEGLSGHTLVIAGDTPLITGESLKNLIDFHINHKNVATILTAETDNPFGYGRIVRNDNAEVLRIVEQKDATDFEKQIKEINTGTYVFDNERLFEALKNINTNNAQGEYYITDVIGIFRETGEKVGAYTLKDFDESLGVNDRVALATAESVMRRRINHKHMVNGVSFVNPEATYIDIDVEIAPEVQIEANVILKGQTKIGAETVLTNGTYVVDSTIGAGAVITNSMIEESSVADGVTVGPYAHIRPNSSLGAQVHIGNFVEVKGSSIGENTKAGHLTYIGNCEVGSNVNFGAGTITVNYDGKNKYKTVIGDNVFVGSNSTIIAPVELGDNSLVGAGSTITKDVPADAIAIGRGRQINKDEYATRLPHHPKNQ”, for which the “soluble on expression in E. coli” value is “soluble”.

Regarding “MRGSHHHHHHTDPALRAAIIPKNYARLESGYREKALKIYPWVCGRCSREFVYSNLRELTVHHIDHDHTNNPEDGSNWELLCLYCHDHEHSKYTEADQYGTTVIAGEDAQKDVGEAKYNPFADLKAMMNKKKGLCGR”, the “soluble on expression in E. coli” value is reported as “soluble”.

As for “MRGSHSGAQGLLAAQKARGLFKDFFPETGTKIELPELFDRGTASFPQTIYCGFDPTADSLHVGHLLALLGLFHLQRAGHNVIALVGGATARLGDPSGRTKEREALETERVRANARALRLGLEALAANHQQLFTDGRSWGSFTVLDNSAWYQKQHLVDFLAAVGGHFRMGTLLSRQSVQLRLKSPEGMSLAEFFYQVLQAYDFYYLFQRYGCRVQLGGSDQLGNIMSGYEFINKLTGEDVFGITVPLITSTTGAKLGKSAGNAVWLNRDKTSPFELYQFFVRQPDDSVERYLKLFTFLPLPEIDHIMQLHVKEPERRGPQKRLAAEVTKLVHGREGLDSAKRCTQALYHRSHHHHHH”, the “soluble on expression in E. coli” value was “soluble”.

On to “MRIDPFKLAHWMNARKYTAAQTADLAGLPLDDLRRLLGDEANEPDPAAATALAEALSVEPSQLAADAHRNLTVVHKSAEEMHASRRPIQRDGIHFYNYYTLAAPEGRVAPVVLDILCPSDRLPALNNGHLEPAITVNLGPGDINGRWGEEITPQTWRVLHANHGGDRWITGDSYVEPSYCPHSYSLAGDAPARIVSYTAQSNISPLMTEANNWSTGAFEEALKALSGKVSAGSVLDLFLARRAHTRTSAAEAAGVPPADLEAALRSPASETGLTVLRTLGRALGFDYRVLLPADDQHDGVGKTWTTIEDSRRSRRTFGTYEAASMASAAHLPDLVGSFLRVDADGRGADLIDHAENHYVVTEGRLTLEWDGPDGPASVELEPDGSAWTGPFVRHRWHGTGTVLKFGSGAHLGYQDWLELTNTFEPAATLRRGRRDLAGWGYDN”, for which the “soluble on expression in E. coli” value is “soluble”.

As to “MRIESPQNPRVKALAALKERKERERTGRFLVEGRREVERALEAGLSLETLLLGPKARPEDRALAGGAEVLELSERALARVSTRENPAQVLGVFRLPRRSLAGVTLGAAPLVLVLLGLEKPGNLGAILRAADGAGADLVLVAEGVDLFSPQVIRNSTGAVFALPVYPVAEGEAARFLEEHNLPLVAATPEGERLYWEGDYRGGVAFLLGAEDKGLPEAWKRRAQVRVRIPMRGRADSLNVAVTAALLLYEALRQRSGGAPL”, the “soluble on expression in E. coli” value was “soluble”.

For “MRIFEPGLCSVTFRSLSPQAVIDLAVANGIRAIEWGADIHVPAGDLENARDVAERTAKAGLAVSSYGSYIFAPDFTRKDLTAVLETAKALGTGHIRIWPGQRKRPSTDYSPAERRTATEALAEIARQAQDYDMTIGLEYHPNSLTDTLPSALQLAQDLALPNLFFYWQPAPGLPLEKALAEISKIGSRVCHLHIFAWLADTNRLPLADRVDYWQSCVEALPESEWTKPAYAMLEFVKGDDVGQFAEDAVTLSEILAGHRVADLEHHHHHH”, the “soluble on expression in E. coli” value was “soluble”.

Turning to “MRIHSAGHSLPAPGPSVETTEKAVQSSSAQNPASCSSQTERPEAGSTQVRPNYPYSSVKTRLPPVSSTGQAISDTPSSLPGYLLLRRLDRRPLDEDSIKALVPADEALREARRALPFGRGNIDVDAQRTHLQSGARAVAAKRLRKDAERAGHEPMPENDEMNWHVLVAMSGQVFGAGNCGEHARIASFAYGALAQESGRSPREKIHLAEQPGKDHVWAETDNSSAGSSPIVMDPWSNGAAILAEDSRFAKDRSAVERTYSFTLAMAAEAGKVARETAENVLTHTTSRLQKRLADQLPNVSPLEGGRYQPEKSVLDEAFARRVSDKLNSDDPRRALQMEIEAVGVAMSLGAEGVKTVARQAPKVVRQARSVASSKGMPPRR”, the “soluble on expression in E. coli” value is “not soluble”.

Take “MRIILLGAPGAGKGTQAQFIMEKYGIPQISTGDMLRAAVKAGSELGLKAKEIMDAGKLVTDELVIALVKERITQEDCRDGFLLDGFPRTIPQADAMKEAGIKVDYVLEFDVPDELIVERIVGRRVHAASGRVYHVKFNPPKVEDKDDVTGEELTIRKDDQEATVRKRLIEYHQQTAPLVSYYHKEADAGNTQYFKLDGTRNVAEVSAELATILG”: the “soluble on expression in E. coli” value is on record as “not soluble”.

On to “MRILAIGDIIGRPGRKALRELLPQLKEEVAYDVVIANVENSAGGFGITKKVYEELLEIGIDVMTSGNHIWDKKEVYNFIGEAYNLLRPANYPEGVPGRGYGIFKKNGVEFAVINLMGKVFMDCNLENPFKTFDRIYDELKDKVKIIVVDFHAEATSEKWAFGIYVDGRASFVYGTHTHVPTADEFILKKGTGYVSDIGMTGVWYSAIGMKPKEAIERFLLSLPRRFEVEDKGEIMFNAVLVDIDEETGKTKSIERIKRFL”, for which the “soluble on expression in E. coli” value is “soluble”.

In the case of “MRILEEDLKNSTYRIRIESLDDLWYLRNILSEGDEVSAITFRRVEESADVQRSRERERIPITIRLKVEKIEFQDFDNRLRILGTVIEGPEDTKGKHQSITVTVDSEISITKEWDDQHIDLLKEATDEKYVTVYTAVAMDEDEAQIFLIHPYGIQQVGTVYSGRSGKYAEGNYSEASYFDQIVNALKNYSNSIIILGPGFARDRFARYCAQRGVNVIGSFPANRTDSGAVYEFITSADGAKLLSNERIARDKEIVDEFLVAVKKDMGVYGRDQTESALQMGALSDLIITDEMFRTEDGRRSLSIAQTVGTRIHIVSVSNDPGQIVKKFGGFAGILRYRVQLEHHHHHH”, the “soluble on expression in E. coli” value is reported as “soluble”.

Turning to “MRIRSLEIEHMRAITHLVLKDLPSNGVIVISGENERGKSTIMEAIKLVLGEKHDTNKQSVKAIQPKGHDVGTRICLEADLGPVRFRVSKVFNKKKSCELTIFEPKPANYTGKEANSQLSGLLDAHLDHDLFSALFVEQGDITSMLSAAGISSVTQALGGATDHASNEDNALILTVEKEKDRYFTKSGATKKGGELGIAETAVAEAEQAVLAATQQKETLDRRVESVAGFQRDRDQAQQDLPNARDTLTTREQELKTAELAAQQLENASAQLKIAQDQERILQSDIDAREELRKEQSRLSEALQIRIQEELDLKEKTDSLSEAREKLRSQHEKARADAEKMRQRLEKLKESLRLDTLRTSYQELLTVSKQLEELRTVPEVTGAQLSAAEEANDRAKAAAYVVEAHAATMLINAAQPVTIQIDGEAVALNDTEWTTRITSELTAVIGDVSLTIEPGEQGEQLEQKRAETQETLRAALGDAKDIATLRLQREAWVDAEKELQSLNKRKNEIAMRFGDKADLERDIADAELQVAELDIQESDDLQQLIDDAEKEYLQYQQDADAYQKELGAWDSNDIQVRYATVKARVEAERENLDRCDQKIKAQEEQRPLEVLHSELHNVTAELKRQQDHLAELRETDNLQVAKDLYAGAAARVESLENTIRDCEANLKALQTQIDYAAGAAEQLDVALAQRDVALRVLEAVHHRAQAAMLLYTTLIRHRDIARQKYAAPFTQRLTEFAAPVFGKGVGFELGSDLSVVKRTMKEQTVGVDELSGGAQEQLSIVQRFAVADLASQGGETVPVFIDDALGSTDSNRLEMMATLFSRQGHNQQVFVLTCMPQRYDYVAGKHELRISDLMQ”, the “soluble on expression in E. coli” value is recorded as “not soluble”.

Consider “MRKEDKGTVIRQLAKYIGQYPHFYLTDIEALNAEKTSELRRNCNKNGVKLVMVKNTLLRAALAASDVDFSSLYSCLKGNTAVMFCEVANSPAKVIKQFTKDTKGEGKPWLKAAYVQESFYIGRENLDALVSIKSKNELIADVVALLQSPAKNVIASLQSAGQTIHGVLKTLEEK”, for which the “soluble on expression in E. coli” value is recorded as “not soluble”.

Consider “MRKLLVSLVLLIFSENVTANRVEQVHLSLSGKMDEMVVTWLTQGPLPNVTPYVMYGLSKDALRWTAKATTTSWKDQGSHGYVRYTHRATMTKMVPGDTYYYKVGSSQDMSDVYHFHQPDPTQPLRAAIFGDLSVYKGAPSIKQLTDATHDNHFDVIIHIGDIAYDLHDDEGNRGDDYMNAVQPFAAYVPYMVFAGNHESDSHFNQIINRFTMPKNGVYDNNLFWSFDYGLTHFIGLNSEYYAEIHTKEAQAQYKWLQADLAKNKAQWTIVMFHRPWYCSTKDKGGCNDYLDMLSRKGNSELPGLEKLLFDHKVDMVLYGHKHTYERMWPIYDGTGYKSSDSGHIRNAKAPVYILTGSAGCHTHEGPSDAPQSFSATRLGQYGYTRLKVYNTTHLSTYFVDTSDKVGNFMDKFYLEKD”, for which the “soluble on expression in E. coli” value is listed as “soluble”.
